Earlier results in publication PMC6205161.

Target: apo-GLRX5 (Homo sapiens) (UniProt Q86SX6)
Assay: thermophoresis

UniProt Q86SX6, sequence (Q86SX6 32-157): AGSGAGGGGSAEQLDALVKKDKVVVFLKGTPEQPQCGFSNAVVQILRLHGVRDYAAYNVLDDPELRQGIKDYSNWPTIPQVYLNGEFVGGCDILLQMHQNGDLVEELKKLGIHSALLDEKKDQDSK

Kd	Substance
3000 nM	BOLA1 (from UniProt Q9Y3E2)
3000 nM	BOLA3 (from UniProt Q53S33)
